A short description of this data set: yeast display, Sf9 membrane polyspecificity reagent, FACS + sequencing; frameworks hold sequencing errors. In a few lines:
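After 36–48 hours of galactose induction, yeast (Saccharomyces cerevisiae BJ5465) displaying a synthetic nanobody library were stained at 4 °C for 1 hour with 10% biotinylated, detergent-solubilized Sf9 membrane reagent. Streptavidin microbeads enriched the stained cells before FACS sorting into low and high (top ~1%) gates on anti-HA and streptavidin fluorescence. Each clone's polyreactivity label reflects its gate of origin.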
Consider “QVQLVESGGGLVQAGGSLRLSCAASGFTFGPKAMGWYRQAPVKERELVAAITFRGDSTYYADSVKVRFTISRDYAKNTVYLQMNCLKPEDTAVYYCATHDRWHHRSLPYEYWGQGTQVTVSS”, for which the “polyreactivity (PSR sort gate)” value is on record as “low polyreactivity”. With “QVQLVESGGGLVQPGGSLRLSCAASGFIFTLYAMGWYRQAPGKEREFFAAISWSDGSTTYADSVKGRFTISRDNAKNTVYLQMNSLKREDTAVYYCAAVTSSYIRGLVYHFYYWGQGTLVTVSS”, the “polyreactivity (PSR sort gate)” value is listed as “low polyreactivity”.

Consider “QDQLVESGGGLVQAGGSLRLSCAASGSTLEYKAIGRYRQAPGQERELVAVINRSDGSTYYADSVKGRFTISRDNAKNTVYLQMNSLKPEDTEVYYCADDRHQVSGISTEDYWGQGTQVTVSS”, for which the “polyreactivity (PSR sort gate)” value is listed as “low polyreactivity”.

As to “QVQLVESGGGLVQAGGSLRLSCAASGRIFNVNAMGWYRQAPGKERELVAGITRSGGSTYYADSVKWRFTISRDNAKNTVYLQMNSLNPEDTAVYYCATQATPWYRYYYWGQGTQVTVSS”, the “polyreactivity (PSR sort gate)” value is “high polyreactivity”. The entry for “QVQLVESGGGLVQAGGSLRLSCAASGRTFWRYAMGWYRQAPWKERELVARISWRGGSTNYADSVKGRFTISRDNAKNTVYLQMNSLKPEDTAVYYFNAEVLNYLVFGYQLGYDYWGQGTQVTVSS” is “low polyreactivity”; for “QVQLVESGGGLVQAGGSLRLICAASGRIFIYYAMGWYRQAPGKERELVAAITGRDGSTYYADSVKGRFTISRDNAKNTVDLQKISLKPEDTAVYYCAASRFYFRRTFGGYPKLASYDYWGQGTQVTVSS” it is “low polyreactivity”; for “QVQLVESGGGLVQAGGSLRLSCAASGSTLYANAMGWYRQAPGKEMALVAAITRTGGNTYYADSVKGRFTISRDNAKNTVYFQMNSLKPEDTAVYYCAARNPPTDHTGYQSSVLPGRYYWGQGTQVTVSS” it is “low polyreactivity”.

Regarding “QLQLVDSGGGLVKAGGSLRLSCAASGRTFYRYAMGWYRKAPGKERELVAAINFSTGSTYYADSVKGRFTISRDNAKNTVYLQMNSLKPEDTAVYYCAVPYGSYVGYDYWGQGTQVTVSS”, the “polyreactivity (PSR sort gate)” value is given as “low polyreactivity”.

Turning to “QVQLVESGGGLVQAGGSLRLSCAASGRIFTGNAMGWYRQAPGKERELVAAITFSGGSTYYADSVKGRFTISRDNAKNTVYLQMNSLKPEDTAVYYCATRSAWYGNWYYYWGQGTQVTVSS”, the “polyreactivity (PSR sort gate)” value is reported as “high polyreactivity”.

As for “QVQLVESGGGLVQAGGSLRLICAASGNTFYGYAMGWYRQAPGKERELVASITLSGDSTYYADSVKGRFTISRDNAKNTVYVQMNSLKPEDTAVYYCAGVYTYPLGYYHDTYDYWGQGTQVTVSS”, the “polyreactivity (PSR sort gate)” value was “low polyreactivity”.

With “QVQLVESGGGLVQAGGSLRLSCAASGRIFPYYAMGWYRQAPGKERELVAAISRIGGRTYYADSVKGRFTISRDNAKNTVSLQMNSLKPEDTAVYYCAAGYGGTFNCGQGTQVTVSS”, the “polyreactivity (PSR sort gate)” value was “high polyreactivity”.

Consider “QVQLVESGGGLVQAGGSLRLSFAASGSIFSYYPMGWYSQAPGKERELVAAISTSGGRTYYADSVKGRFTISRDNEKNTVYLQLYSLKPEDTPVYYCAAPVRWKNYDYWGQGTQVTVSS”, for which the “polyreactivity (PSR sort gate)” value is given as “high polyreactivity”.

Take “QVQLVESGGGLVQAGGSLRLSCAASGIFPWFAMGWYRQAPGKERELVAVITGGDSTNYADSVKGRFTISRDNAKNTVYLQMNSLKPEDTAVYYCAARNTGPVQYYYWGQGTQVTVSS”: the “polyreactivity (PSR sort gate)” value was “low polyreactivity”. Under “QVQLVESGGGLVQAGGSLRLSCAASGFIFGDKAMGWYRQAPGKERELVAAINSGSRTSYADSVKGRFTISRDNAKNTVYLQMNSLNPEDTAVYYCAAESVSSGDNASRYDYWGQGTQVTVSS” stands “low polyreactivity”; under “QVQLVESGGGLVQAGGSLRLSCAATGRIFQRNAMGWSRQEPGKEREFVAAISSRGGTTYYADSVKGRFTISRDNAKNTVYLQMNSLKQEDTAVYYCAAGYVHLYYFHEYYWGQGTQVTVSS”, “high polyreactivity”; under “QVQLVESGGGLVQAGGSLRLSCAASGFTFVSNAMGWYRQAPGKEREMVADITSDGSTNYADSVKGRFTISRDNAKNTVSLQMNSLKPEDTAVYYCNADASYGFWSLLHYDYWGQATQVTVSS”, “low polyreactivity”. Under “QVQLVESGGGLVQAGGSLRLSCAASGFSFSRNTMGWYRQAPGKDRELVATIDRGGRTNYADSVKGRFTISRDNAKNTVYLQMNSLKPEDTAVFYCNAYWRRFPQYDYWGLGTQVTVSS” stands “high polyreactivity”; under “QVQLVESGGGFDHAGGSLRLSCAAYGSTFVYNAMGWYRQAPGKERELVAAITSTGGNTDYADSVKGRFTISRDNAKNTVYLQMNSLKPEDTAVYYCNARDYYWLGFTYRFDYWGQGTQVTVSS”, “low polyreactivity”; under “QVPLVESVGGLVQAGGRLRLSCAASGSIFGHNTMGWYREAPGKERELVAAISVSGTRTYYADSVKGRFTISRDNAKNTVYLQMNSLKPEDTAVYYCAAEISRVRQGVAWSYKYEYWGQGTQVTVSS”, “high polyreactivity”. As to “QVQLVESGGGLVQAGGSLRLSCAASGRTLSTNGMGWYRQAPGKERELVATITRRGGRTYYADSVKGRFTISRDNAKNTVYLQMNSLKPEDTAVYYCATEQADRRVTYKYWGQGTQVTVSS”, the “polyreactivity (PSR sort gate)” value was “high polyreactivity”.

Turning to “QVQLVESGGGLVQAGGSLRLSCAASGSIFSPNAMGWYRQAPGKERELVAGITRSGGRTYYADSVKGRFTISRDNAMNTVYLQMNSLKPEDTAVYYCAARAFSYGLKYDYWGQGTQVTVSS”, the “polyreactivity (PSR sort gate)” value is given as “high polyreactivity”. The entry for “QDQLVESGGGLVQEGGSLRLSCAASGSTFKNYALGWYRQAPGTERELVAASNVSRARTYYADSVKGRFTLSRDNAKNRVYFQMNSLIPEDTAFYYCAAYYSGVGFDYWGQGTHVTVSS” is “high polyreactivity”; for “QVQLVESGGGLVQAGGSLRLSCAASGSIFRWYDMGWYRQAPGKERELVAAITWSGSTYYADSVKGRFTISRDNAKNTVYLQMNSLKPEDTAVYYCAAGSRYCNAETYSWYDYWGQGTQVTVSS” it is “high polyreactivity”; for “QVQLVESGGGLVQAGGSLRLSCAASGSTFGINAMGWYRQAPGKERELVASITRRGGSTYYADSVKGRFTISRDNAKNTVYLQMNSLKTEDTAVYYFNKTYRYGTPLYDYWGQGTQVTVSS” it is “high polyreactivity”. The entry for “QVQHVESRGGLVQAGGSLRLSCAASGRIFGTYGMGRYRQAPGKERELVAAINWRGGSTYYADSVKGRFTISRDNAKNTVYLQMNSLIPEDTAVYYCNARLYRKRLGYWGQGTQVTVSS” is “high polyreactivity”; for “QVQHVESGGGLVQAGGSLRLSCAASGSTFGWYAMGWYRQAPGKVRELVAAITRRGTRTYYADSVKGRFTISRDNAKNTVYLQMNSLKPEDTAVYYCNARGFPGKFGYWGQGTQVTVSS” it is “high polyreactivity”.

Consider “QVQLVESGGGLVQAGGSLRLSCAASGSIFSYYAMGWYRQAPGKERELVAAISSRGDGRTYYADSVKGRFTISRDNAKNTVYLQMNSLKPEDTAVYYCAAESSHYRLRDRDYWGQGTQVTVSS”, for which the “polyreactivity (PSR sort gate)” value is listed as “high polyreactivity”. Regarding “QVQLVESGGGLVQAGGSLRLSCAASGSIFGTNTMGWYRQAAGKERVLVAAIRLSDSSTYYADSVKGRFTISRDNAKKTVYLQMNSLKPGDTAVYYCAVDYRAYHYYRYDYWGQGTQVTVSS”, the “polyreactivity (PSR sort gate)” value was “low polyreactivity”.

For the sequence “QVQLVESGGGLVQAGGSLRLSCAASGRTFGYYAMGWYRQAPGKERELVAAISWRGTSTYYADSVKGRFTISRDNAKNTVYLQMNSLKPEDTAVYYCNRYTTRYYPGGDYWGQGTQVTVSS”, the “polyreactivity (PSR sort gate)” value is given as “high polyreactivity”.

Consider “QVQLVESGVGLVQAGGSLRLSCAATGSILSINGMGWYIPAPGKERELVATIDGSDGSTFYADSVKGRFTISRDNAKNTVFLQMNSLNPEDTEVYYCADENFWQTKEYDYWGQGTQVTVSS”, for which the “polyreactivity (PSR sort gate)” value was “low polyreactivity”. Under “QVQLVQSGGGLVQAGGSLRLSCAASGRTFYYAMGWYRQAPGKERELVARITRRGGSTYYADSVKGRFTISRDNAKNTVYLQMNSLKPEDTAVYYCNARWHRYLLATYGYWVQGTQVTVSS” stands “high polyreactivity”; under “QVQLVESGGGLGQAGGSLLLSCAASGTFYTYAMGWYRQAPAKERELVAAINGGGRTYYADSVKGRITISRDNAKNSVYFQMNSLKPEDTAVYYCAAVRRISRYDYWGQGTQVTVSS”, “high polyreactivity”; under “QVQLVESGGGLVQAGGRLRLSCAASGSTFWSKVMGWYRQAPGKERELVSAISYGGVTTSYADSVKGRFTISRDNAKNTVYLQMTSLKPEDTAVYYCATDYVGYYFYESDYWGQGTQVTVSS”, “low polyreactivity”. In the case of “QVQLVESGGGLVQAGGSLRLSCAASGSICRSYAMGWYRQAPGKERELVASITRSYGSTYYADSVKGRFTISRDNAKNTVYLQMNSLKPEDTAVYYCNAVVSKSRRFRVDYWGHGTQVTVSS”, the “polyreactivity (PSR sort gate)” value is “high polyreactivity”.

With “QVQLVDSGGGLVQAGGRLLLSCAASGRTFRKYTMGWYREAPGKERELVAAISSRGGSTYYADSVKGRFTISRDNAKYTVYLQMNSMKPEDTAVYYCDTDYITPSSEGDYWGQGTQVTVSS”, the “polyreactivity (PSR sort gate)” value is on record as “high polyreactivity”. The entry for “QVQLVESGGGLGQAGGSLRLSCAASGLIFFFYAMGWYRQAPGKERELVASISGGGITYYADSVKGRFTISRDNAKNTVYLQMYSLKPEDTAVIKNDFWGQGTQVTVSS” is “low polyreactivity”. The entry for “QVQLVESGGGLVQAGGSLRLSCAASGRTFGYYAMGWYRQAPGKERELVAAITRSGDRTYYADSVKGRFTISRDNAKNTVYLQLNSLKPEDTAVYYCARYAYLISDYWGQGTQVTVSS” is “high polyreactivity”; for “QVQLVESGGGLVQAGGRLRLSCAASGNIFLDYTLGWYRQAPGKERELVAAISRGGSTYYADSVKGRFTISRDNAKNTVYLQMNSLKPEDTAVYYCNARCWEYFAHNYWGQGTQVTVSS” it is “low polyreactivity”. On to “QVQLVESVGGLVQAGGSLRLSCAASGNIFRGYTMGWYRQAPGKESELVATITWTGVSTFYADSVKGRFTISRDNAKNTVYLQMNSLKPEDTAVYYCAAYYPSHDYSGFWSDTYEYWGQGTQVTVSS”, for which the “polyreactivity (PSR sort gate)” value is “low polyreactivity”. The entry for “QVQLVESGGGLVQAGGSLRLSCAASGIIFQSYTMGWYRQAPGKVRELVAAIDSGGSTYYADSVKGRFTISRDNAKNTVYLQMNSLKPEDTAVYYCAAEPDTYWYTYDYWGQGTQVTVSS” is “low polyreactivity”; for “QVQLVESGGGLVQAGGSLRLSCAASGSIFAGNVMGWYRQAPGKERELVAAISRRGGRTYYADSVKGRFTISRDNAKNTVYLQMNSLKPEDTAVYYCAARRDPVLGKSDYWGQGTQVTVSS” it is “high polyreactivity”.
